The results in this text go back to FireProtDB (doi:10.1111/febs.14143).

Where “and” joins values, the source holds several entries; their conditions need not be identical. Equal entries are not always repeated.

The chains are these.
B1: Guanine nucleotide-binding protein G(i) subunit alpha-3, P08753 (parent)
chain: MGCTLSAEDKAAVERSKMIDRNLREDGEKAAKEVKLLLLGAGESGKSTIVKQMKIIHEDGYSEDECKQYKVVVYSNTIQSIIAIIRAMGRLKIDFGEAARADDARQLFVLAGSAEEGVMTSELAGVIKRLWRDGGVQACFSRSREYQLNDSASYYLNDLDRISQTNYIPTQQDVLRTRVKTTGIVETHFTFKELYFKMFDVGGQRSERKKWIHCFEGVTAIIFCVALSDYDLVLAEDEEMNRMHESMKLFDSICNNKWFTDTSIILFLNKKDLFEEKIKRSPLTICYPEYTGSNTYEEAAAYIQCQFEDLNRRKDTKEVYTHFTCATDTKNVQFVFDAVTDVIIKNNLKECGLY

One data set covers variants of B1. The conditions noted are these: Rattus norvegicus; pH 7.5; Thermal; Fluorescence; HEPES; NaCl MgCl2 50000 2000; transition: 2; reversible: yes; structure 6MHE; whole UniProt chain shown.
As for A326S, the midpoint of thermal melting (Tm) is 64 °C and 62.5 °C.

Consider G203A, for which the midpoint of thermal melting (Tm) is 57.5 °C.

The same data set, now with this note: Rattus norvegicus; pH 7.5; Thermal; DSC; HEPES; NaCl MgCl2 50000 2000; transition: 2; reversible: yes; structure 6MHE; whole UniProt chain shown.
Turning to T329A, the Tm worked out at 65 °C.

As usually defined, the Tm is the temperature at which the thermal transition is half complete.
